T1: STK4 (residues 1–326) K59R (human, UniProt Q13043 1-326, K59R)
T1 sequence: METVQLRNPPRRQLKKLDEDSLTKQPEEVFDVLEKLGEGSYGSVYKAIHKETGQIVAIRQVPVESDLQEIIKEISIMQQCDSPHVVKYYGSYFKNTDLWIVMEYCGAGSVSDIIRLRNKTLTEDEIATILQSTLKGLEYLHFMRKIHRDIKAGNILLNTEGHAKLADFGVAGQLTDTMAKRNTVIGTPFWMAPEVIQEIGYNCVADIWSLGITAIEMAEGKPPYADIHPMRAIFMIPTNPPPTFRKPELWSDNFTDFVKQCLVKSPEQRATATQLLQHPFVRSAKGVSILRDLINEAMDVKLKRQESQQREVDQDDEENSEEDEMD

T2: STK4 (residues 11–326) K59R (human, UniProt Q13043 11-326, K59R)
T2 sequence: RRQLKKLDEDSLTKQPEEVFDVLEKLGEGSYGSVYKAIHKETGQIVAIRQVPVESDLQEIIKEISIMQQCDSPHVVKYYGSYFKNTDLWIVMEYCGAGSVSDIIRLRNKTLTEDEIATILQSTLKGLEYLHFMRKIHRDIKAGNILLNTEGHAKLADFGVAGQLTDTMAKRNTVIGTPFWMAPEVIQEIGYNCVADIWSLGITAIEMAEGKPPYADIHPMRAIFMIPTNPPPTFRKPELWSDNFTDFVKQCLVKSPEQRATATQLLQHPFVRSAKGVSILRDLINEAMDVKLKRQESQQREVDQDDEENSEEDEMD

T3: STK4 (residues 1–326) K59R N239A (human, UniProt Q13043 1-326, K59R | N239A)
T3 sequence: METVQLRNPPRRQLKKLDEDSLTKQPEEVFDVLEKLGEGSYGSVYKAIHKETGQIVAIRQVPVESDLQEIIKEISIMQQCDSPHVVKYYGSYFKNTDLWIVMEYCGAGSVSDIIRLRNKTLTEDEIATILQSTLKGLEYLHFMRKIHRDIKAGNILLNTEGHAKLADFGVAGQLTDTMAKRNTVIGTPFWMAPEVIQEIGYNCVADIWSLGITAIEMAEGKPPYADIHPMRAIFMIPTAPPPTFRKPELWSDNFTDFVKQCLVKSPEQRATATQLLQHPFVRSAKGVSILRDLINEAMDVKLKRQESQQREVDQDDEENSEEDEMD


Experiments:
[1] = molecular target: T1, STK4 (residues 1–326) K59R; test: ITC
[2] = molecular target: T2, STK4 (residues 11–326) K59R; test: ITC
[3] = molecular target: T3, STK4 (residues 1–326) K59R N239A; test: ITC; printed as R239A

Kd [1]	Kd [2]	Kd [3]	Binder
36.4 µM	34.7 µM	–	HOIP (residues 697–1072) (domain or fragment) QECAVCGWALPHNRMQALTSCECTICPDCFRQHFTIALKEKHITDMVCPACGRPDLTDDTQLLSYFSTLDIQLRESLEPDAYALFHKKLTEGVLMRDPKFLWCAQCSFGFIYEREQLEATCPQCHQTFCVRCKRQWEEQHRGRSCEDFQNWKRMNDPEYQAQGLAMYLQENGIDCPKCKFSYALARGGCMHFHCTQCRHQFCSGCYNAFYAKNKCPEPNCRVKKSLHGHHPRDCLFYLRDWTALRLQKLLQDNNVMFNTEPPAGARAVPGGGCRVIEQKEVPNGLRDEACGKETPAGYAGLCQAHYKEYLVSLINAHSLDPATLYEVEELETATERYLHVRPQPLAGEDPPAYQARLLQKLTEEVPLGQSIPRRRK
–	–	149 µM	HOIP (residues 854–1072) (domain or fragment) EYQAQGLAMYLQENGIDCPKCKFSYALARGGCMHFHCTQCRHQFCSGCYNAFYAKNKCPEPNCRVKKSLHGHHPRDCLFYLRDWTALRLQKLLQDNNVMFNTEPPAGARAVPGGGCRVIEQKEVPNGLRDEACGKETPAGYAGLCQAHYKEYLVSLINAHSLDPATLYEVEELETATERYLHVRPQPLAGEDPPAYQARLLQKLTEEVPLGQSIPRRRK

Source: article PMC12441119 (2025)
